Measured values taken from US20250320281A1.

What was measured:
Experiment in all cases: cell-based or functional assay
[1] = target: HIV-1 envelope glycoprotein (Env) of isolate APV17, clade B (HIV-1)
[2] = target: HIV-1 envelope glycoprotein (Env) of isolate NL43, clade B (HIV-1)
[3] = target: HIV-1 envelope glycoprotein (Env) of isolate 92TH021, clade AE (HIV-1)
[4] = target: HIV-1 envelope glycoprotein (Env) of isolate 93IN905, clade C (HIV-1)
[5] = target: HIV-1 envelope glycoprotein (Env) of isolate MGRM-D-018, clade D (HIV-1)
[6] = target: HIV-1 envelope glycoprotein (Env) of isolate MGRM-D-001, clade D (HIV-1)
[7] = target: HIV-1 envelope glycoprotein (Env) of isolate MGRM-C-028, clade C (HIV-1)
[8] = target: HIV-1 envelope glycoprotein (Env) of isolate JRFL, clade B (HIV-1)
[9] = target: HIV-1 envelope glycoprotein (Env) of isolate 94UG103, clade A (HIV-1)
[10] = target: HIV-1 envelope glycoprotein (Env) of isolate CMU02, clade AE (HIV-1)
[11] = target: HIV-1 envelope glycoprotein (Env) of isolate MGRM-AG-005, clade AG (HIV-1)
[12] = target: HIV-1 envelope glycoprotein (Env) of isolate MGRM-C-026, clade C (HIV-1)
[13] = target: HIV-1 envelope glycoprotein (Env) of isolate JRCSF, clade B (HIV-1) (UniProt P20871)
[14] = target: HIV-1 envelope glycoprotein (Env) of isolate 92BR020, clade B (HIV-1)
[15] = target: HIV-1 envelope glycoprotein (Env) of isolate 92UG005, clade D (HIV-1)
[16] = target: aMLV envelope protein (negative control pseudovirus)
[17] = target: HIV-1 envelope glycoprotein (Env) of isolate APV6, clade B (HIV-1)
[18] = target: HIV-1 envelope glycoprotein (Env) of isolate 93UG077, clade A (HIV-1)
[19] = target: HIV-1 envelope glycoprotein (Env) of isolate 92RW020, clade A (HIV-1)
[20] = target: HIV-1 envelope glycoprotein (Env) of isolate APV13, clade B (HIV-1)
[21] = target: HIV-1 envelope glycoprotein (Env) of isolate 92UG024, clade D (HIV-1)
[22] = target: HIV-1 envelope glycoprotein (Env) of isolate MGRM-A-010, clade A (HIV-1)
[23] = target: HIV-1 envelope glycoprotein (Env) of isolate MGRM-C-027, clade C (HIV-1)

B1: PGT-135 (5343_B08; 5344_E16) human monoclonal anti-HIV antibody (antibody, V domains shown)
VH: QLQMQESGPGLVKPSETLSLSCTVSGDSIRGGEWGDKDYHWGWVRHSAGKGLEWIGSIHWRGTTHYKESLRRRVSMSIDTSRNWFSLRLASVTAADTAVYFCARHRHHDVFMLVPIAGWFDVWGPGVQVTVSS
VL: EIVMTQSPDTLSVSPGETVTLSCRASQNINKNLAWYQYKPGQSPRLVIFETYSKIAAFPARFVASGSGTEFTLTINNMQSEDVAVYYCQQYEEWPRTFGQGTKVDIK
IC50 (neutralization of pseudovirus) [1]: > 10 µg/mL | IC80 (neutralization of pseudovirus) [1]: > 10 µg/mL | IC90 (neutralization of pseudovirus) [1]: > 10 µg/mL | IC95 (neutralization of pseudovirus) [1]: > 10 µg/mL | IC50 (neutralization of pseudovirus) [2]: 6.79 µg/mL | IC80 (neutralization of pseudovirus) [2]: > 10 µg/mL | IC90 (neutralization of pseudovirus) [2]: > 10 µg/mL | IC95 (neutralization of pseudovirus) [2]: > 10 µg/mL | IC50 (neutralization of pseudovirus) [3]: > 10 µg/mL | IC80 (neutralization of pseudovirus) [3]: > 10 µg/mL | IC90 (neutralization of pseudovirus) [3]: > 10 µg/mL | IC95 (neutralization of pseudovirus) [3]: > 10 µg/mL | IC50 (neutralization of pseudovirus) [4]: 0.0183 µg/mL | IC80 (neutralization of pseudovirus) [4]: 0.0648 µg/mL | IC90 (neutralization of pseudovirus) [4]: 0.136 µg/mL | IC95 (neutralization of pseudovirus) [4]: 0.268 µg/mL | IC50 (neutralization of pseudovirus) [5]: 0.0433 µg/mL | IC80 (neutralization of pseudovirus) [5]: 0.2 µg/mL | IC90 (neutralization of pseudovirus) [5]: > 10 µg/mL | IC95 (neutralization of pseudovirus) [5]: > 10 µg/mL | IC50 (neutralization of pseudovirus) [6]: > 10 µg/mL | IC80 (neutralization of pseudovirus) [6]: > 10 µg/mL | IC90 (neutralization of pseudovirus) [6]: > 10 µg/mL | IC95 (neutralization of pseudovirus) [6]: > 10 µg/mL | IC50 (neutralization of pseudovirus) [7]: 2.16 µg/mL | IC80 (neutralization of pseudovirus) [7]: > 10 µg/mL | IC90 (neutralization of pseudovirus) [7]: > 10 µg/mL | IC95 (neutralization of pseudovirus) [7]: > 10 µg/mL | IC50 (neutralization of pseudovirus) [8]: > 10 µg/mL | IC80 (neutralization of pseudovirus) [8]: > 10 µg/mL | IC90 (neutralization of pseudovirus) [8]: > 10 µg/mL | IC95 (neutralization of pseudovirus) [8]: > 10 µg/mL | IC50 (neutralization of pseudovirus) [9]: > 10 µg/mL | IC80 (neutralization of pseudovirus) [9]: > 10 µg/mL | IC90 (neutralization of pseudovirus) [9]: > 10 µg/mL | IC95 (neutralization of pseudovirus) [9]: > 10 µg/mL | IC50 (neutralization of pseudovirus) [10]: > 10 µg/mL | IC80 (neutralization of pseudovirus) [10]: > 10 µg/mL | IC90 (neutralization of pseudovirus) [10]: > 10 µg/mL | IC95 (neutralization of pseudovirus) [10]: > 10 µg/mL | IC50 (neutralization of pseudovirus) [11]: > 10 µg/mL | IC80 (neutralization of pseudovirus) [11]: > 10 µg/mL | IC90 (neutralization of pseudovirus) [11]: > 10 µg/mL | IC95 (neutralization of pseudovirus) [11]: > 10 µg/mL | IC50 (neutralization of pseudovirus) [12]: 0.0123 µg/mL | IC80 (neutralization of pseudovirus) [12]: 0.0562 µg/mL | IC90 (neutralization of pseudovirus) [12]: 0.139 µg/mL | IC95 (neutralization of pseudovirus) [12]: 0.331 µg/mL | IC50 (neutralization of pseudovirus) [13]: 0.113 µg/mL | IC80 (neutralization of pseudovirus) [13]: 0.503 µg/mL | IC90 (neutralization of pseudovirus) [13]: 1.47 µg/mL | IC95 (neutralization of pseudovirus) [13]: 8.3 µg/mL | IC50 (neutralization of pseudovirus) [14]: 0.104 µg/mL | IC80 (neutralization of pseudovirus) [14]: 0.253 µg/mL | IC90 (neutralization of pseudovirus) [14]: 0.43 µg/mL | IC95 (neutralization of pseudovirus) [14]: 0.72 µg/mL | IC50 (neutralization of pseudovirus) [15]: > 10 µg/mL | IC80 (neutralization of pseudovirus) [15]: > 10 µg/mL | IC90 (neutralization of pseudovirus) [15]: > 10 µg/mL | IC95 (neutralization of pseudovirus) [15]: > 10 µg/mL | IC50 (neutralization of pseudovirus) [16]: > 10 µg/mL | IC80 (neutralization of pseudovirus) [16]: > 10 µg/mL | IC90 (neutralization of pseudovirus) [16]: > 10 µg/mL | IC95 (neutralization of pseudovirus) [16]: > 10 µg/mL | IC50 (neutralization of pseudovirus) [17]: > 10 µg/mL | IC80 (neutralization of pseudovirus) [17]: > 10 µg/mL | IC90 (neutralization of pseudovirus) [17]: > 10 µg/mL | IC95 (neutralization of pseudovirus) [17]: > 10 µg/mL | IC50 (neutralization of pseudovirus) [18]: > 10 µg/mL | IC80 (neutralization of pseudovirus) [18]: > 10 µg/mL | IC90 (neutralization of pseudovirus) [18]: > 10 µg/mL | IC95 (neutralization of pseudovirus) [18]: > 10 µg/mL | IC50 (neutralization of pseudovirus) [19]: 0.157 µg/mL | IC80 (neutralization of pseudovirus) [19]: 3.46 µg/mL | IC90 (neutralization of pseudovirus) [19]: > 10 µg/mL | IC95 (neutralization of pseudovirus) [19]: > 10 µg/mL | IC50 (neutralization of pseudovirus) [20]: 0.545 µg/mL | IC80 (neutralization of pseudovirus) [20]: > 10 µg/mL | IC90 (neutralization of pseudovirus) [20]: > 10 µg/mL | IC95 (neutralization of pseudovirus) [20]: > 10 µg/mL | IC50 (neutralization of pseudovirus) [21]: 0.0139 µg/mL | IC80 (neutralization of pseudovirus) [21]: 0.054 µg/mL | IC90 (neutralization of pseudovirus) [21]: 0.122 µg/mL | IC95 (neutralization of pseudovirus) [21]: 0.267 µg/mL | IC50 (neutralization of pseudovirus) [22]: > 10 µg/mL | IC80 (neutralization of pseudovirus) [22]: > 10 µg/mL | IC90 (neutralization of pseudovirus) [22]: > 10 µg/mL | IC95 (neutralization of pseudovirus) [22]: > 10 µg/mL | IC50 (neutralization of pseudovirus) [23]: > 10 µg/mL | IC80 (neutralization of pseudovirus) [23]: > 10 µg/mL | IC90 (neutralization of pseudovirus) [23]: > 10 µg/mL | IC95 (neutralization of pseudovirus) [23]: > 10 µg/mL
